Where no end group is shown, it is not given here. The star is where a group is joined. Boc = CC(C)(C)OC(=O)*
Target: Wnt-5a receptors (on A2058 melanoma cells)
Assay: cell-based or functional assay

inhibition of the Wnt-5a-induced Ca2+ signal (fura-2, A2058 melanoma cells, 100 uM Box5, 0.1 ug/ml Wnt-5a): > 70%
B1: Box5 (Wnt-5a-derived N-butyloxycarbonyl hexapeptide Met-Asp-Gly-Cys-Glu-Leu) (peptide)
peptide: Boc-MDGCEL

From patent US20120010151A1
